In patent publication US20260152753:

System: κ-casein (in skim milk)

PEP4 aspartyl protease of the Pichia pastoris host cell
SDS electrophoresis after 24 hours at 5 °C, 0.5% b-lactoglobulin from a pep4-containing host, heated and unheated: the k-casein peak in both the heated and unheated samples had markedly reduced in size and a peak in the position expected for para-k-casein was present
SDS-PAGE of heated skim milk with B-lac from a pep4-containing host: κ-casein band and para-κ-casein band: the band intensity of the k-casein band decreased and a peptide band consistent with that of para-k-casein appeared
SDS-PAGE of unheated skim milk with B-lac from a pep4-containing host: κ-casein band and para-κ-casein band: the band intensity of the k-casein band decreased and a peptide band consistent with that of para-k-casein appeared
lab-on-a-chip para-κ-casein peak area 24 h after 80 °C/30 min treatment, sample B-lac 1A (start: 0): After 24 hours, the peak area was 115.2 and 35.82 for κ-casein and para-κ-casein, respectively
lab-on-a-chip para-κ-casein peak area 24 h after 120 °C/10 min treatment, sample B-lac 1A (start: 0): After 24 hours, the peak area was 179.4 and 16.12 for κ-casein and para-κ-casein, respectively
lab-on-a-chip peak area of para-κ-casein formed at 24 h at 5 °C, sample B-lac 1A (0 h: 0): 147 peak area
lab-on-a-chip peak area of para-κ-casein formed at 24 h at 5 °C, sample B-lac 1B (0 h: 0): 56.1 peak area
lab-on-a-chip κ-casein peak area 24 h after 80 °C/30 min treatment, sample B-lac 1A (start: 249.48): After 24 hours, the peak area was 115.2 and 35.82 for κ-casein and para-κ-casein, respectively
lab-on-a-chip κ-casein peak area 24 h after 120 °C/10 min treatment, sample B-lac 1A (start: 249.6): After 24 hours, the peak area was 179.4 and 16.12 for κ-casein and para-κ-casein, respectively
lab-on-a-chip κ-casein peak area at 24 h at 5 °C, sample B-lac 1A (0 h: 255): 91.5 (64% degraded)
lab-on-a-chip κ-casein peak area at 24 h at 5 °C, sample B-lac 1B (0 h: 253.98): 138.72 (46% degraded)
microfluidic chip SDS-PAGE of skim milk with about 1% B-Lac 1A held 0, 24 or 48 hours at room temperature: showed evidence of proteolysis on storage with a decrease in the band associated with k-casein, and a new peptide peak appearing
κ-casein degraded 24 h after 80 °C/30 min treatment, sample B-lac 1A: indicating that κ-casein had degraded by 54%
κ-casein degraded 24 h after 120 °C/10 min treatment, sample B-lac 1A: indicating that κ-casein had degraded by 72%
κ-casein degraded after 24 h at 5 °C, sample B-lac 1A: 91.5 (64% degraded)
κ-casein degraded after 24 h at 5 °C, sample B-lac 1B: 138.72 (46% degraded)
